B1: BolA-like protein 3 (Homo sapiens), Q53S33 (parent)
chain: MAAWSPAAAAPLLRGIRGLPLHHRMFATQTEGELRVTQILKEKFPRATAIKVTDISGGCGAMYEIKIESEEFKEKRTVQQHQMVNQALKEEIKEMHGLRIFTSVPKR
partner: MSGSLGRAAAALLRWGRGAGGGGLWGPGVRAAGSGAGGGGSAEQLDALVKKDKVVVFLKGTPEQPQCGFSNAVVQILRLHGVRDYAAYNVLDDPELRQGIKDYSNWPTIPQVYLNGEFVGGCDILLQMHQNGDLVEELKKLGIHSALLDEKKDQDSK

In the experiment the parent is B1. The conditions noted are these: with glrx5_human GLRX5, Q86SX6.
Take C59Y: the “effect of a mutation on the interaction” value is “with no effect”.

Source of the values: IntAct's records for PubMed 34063696.
